In paper PMC3958255 (Sensors (Basel, Switzerland), 2014):

Tests used:
[1] = biological target: T1, Lc-Jun (bJun fused downstream of mLumin (151-233)) (UniProt P05412 257-318); assay: split reporter (BiFC, NanoBiT); mLumin-based BiFC from the bicistronic vector pBudCE4.1 (BEVL-BiFC) in living COS-7 cells; 100 ng vector (also 300 ng) with 30 ng pmCerulean-C1 as internal control; imaged 16 h after cotransfection; BiFC efficiency = fluorescence intensity ratio of mLumin to mCerulean; conditions: partners not purified
T1 construct: primers are in the Supporting Information; also called Lc-bJun; source: COS-7, transfected (pBudCE4.1 bicistronic vector), in living cells; not shown: mLumin (151-233) (Lc), N-terminal, kept

[2] = biological target: T2, Jun-Lc (bJun fused upstream of mLumin (151-233)) (UniProt P05412 257-318); assay: as above; conditions: partners not purified
T2 construct: primers are in the Supporting Information; also called bJun-Lc; source: COS-7, transfected (pBudCE4.1 bicistronic vector), in living cells; not shown: mLumin (151-233) (Lc), C-terminal, kept
T2 sequence (P05412 257-318): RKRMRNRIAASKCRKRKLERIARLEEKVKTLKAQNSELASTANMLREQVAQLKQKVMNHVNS

T1 sequence (P05412 257-318): as above

- fold contrast in BiFC efficiency over ΔFos/Jun [1]: ~25 fold
- fold contrast in BiFC efficiency over ΔFos/Jun [2]: ~25 fold
B1: Ln-Fos (bFos fused downstream of mLumin (1-151)) (domain or fragment, UniProt P01100 118-210, looked up)
chain: GRAQSIGRRGKVEQLSPEEEEKRRIRRERNKMAAAKCRNRRRELTDTLQAETDQLEDEKSALQTEIANLLKEKEKLEFILAAHRPACKIPDDL
notes: primers are in the Supporting Information; also called Ln-bFos; source: COS-7, transfected (pBudCE4.1 bicistronic vector), in living cells; not shown: mLumin (1-151) (Ln), N-terminal, kept
